Test results taken from patent US20250002593A1 (INMAGENE PTE, published 2025).
Numbering of substitutions follows the chain as printed. Numbers in names are those of the source. Blank lines part the entries; values can stand above or below the binder they belong to.

Assays:
[1] = molecular target: T1, recombinant hFcRn-his/B2M heterodimer protein (Acrobio, Cat #FCM-H82W4) (human, UniProt P55899 24-297; P61769 21-119); assay: BLI (Gator) at pH 6.0, hFcRn-his/B2M on anti-his sensor, antibody analyte
T1 construct: Bought heterodimer

[2] = molecular target: T1, recombinant hFcRn-his/B2M heterodimer …; assay: as above; remark: listed apart in the source
[3] = molecular target: T2, Recombinant hIL-36R protein (Acrobio, Cat #IL2-H52H6) (human, UniProt Q9HB29 20-335); assay: BLI (Gator), antibody on Protein A sensor, hIL-36R analyte; column head prints koff(1/Ms)
T2 construct: Bought soluble protein; also called recombinant human IL-36R protein
T2 sequence: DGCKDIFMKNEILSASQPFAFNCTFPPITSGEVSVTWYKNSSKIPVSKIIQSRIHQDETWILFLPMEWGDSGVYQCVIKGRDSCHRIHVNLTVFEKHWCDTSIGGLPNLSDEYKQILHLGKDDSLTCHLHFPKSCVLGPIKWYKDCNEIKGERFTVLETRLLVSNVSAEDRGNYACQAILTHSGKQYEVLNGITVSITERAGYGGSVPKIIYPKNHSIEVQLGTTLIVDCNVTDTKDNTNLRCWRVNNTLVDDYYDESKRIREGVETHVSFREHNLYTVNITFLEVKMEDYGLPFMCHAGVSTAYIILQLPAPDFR

[4] = molecular target: T2, Recombinant hIL-36R protein (Acrobio, …); assay: BLI (Gator), antibody on Protein A sensor, hIL-36R analyte
[5] = molecular target: T2, Recombinant hIL-36R protein (Acrobio, …); assay: BLI (Gator), antibody on Protein A sensor, hIL-36R analyte; column head prints kon(1/s)
membrane hIL-36R [6] = molecular target: T3, membrane hIL-36R (human, UniProt Q9HB29 20-575); assay: cell-based or functional assay
T3 sequence: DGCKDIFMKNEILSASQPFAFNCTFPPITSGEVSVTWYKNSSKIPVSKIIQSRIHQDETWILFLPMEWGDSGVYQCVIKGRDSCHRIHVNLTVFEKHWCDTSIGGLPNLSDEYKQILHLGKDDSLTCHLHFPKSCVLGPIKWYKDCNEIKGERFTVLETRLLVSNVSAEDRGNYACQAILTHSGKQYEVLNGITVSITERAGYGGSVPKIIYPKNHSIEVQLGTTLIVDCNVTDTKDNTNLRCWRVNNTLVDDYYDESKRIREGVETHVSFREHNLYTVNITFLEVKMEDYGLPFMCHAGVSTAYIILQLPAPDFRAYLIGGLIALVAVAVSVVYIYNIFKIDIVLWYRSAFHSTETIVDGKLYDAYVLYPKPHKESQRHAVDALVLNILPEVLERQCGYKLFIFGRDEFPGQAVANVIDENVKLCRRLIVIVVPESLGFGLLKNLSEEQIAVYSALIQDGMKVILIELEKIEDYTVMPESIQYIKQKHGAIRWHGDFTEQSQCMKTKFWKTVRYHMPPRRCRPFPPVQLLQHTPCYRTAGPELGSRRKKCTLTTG

membrane hIL-36R [7] = molecular target: T3, membrane hIL-36R; assay: cell-based or functional assay; remark: listed apart in the source

- Kd [1]: 13.7 nM
- koff [1]: 0.00398 s⁻¹
- kon [1]: 290000 M⁻¹ s⁻¹
- fold increase of binding affinity against 5F7-2a8-WT [2]: ~10 fold
B1: 5F7-2a8-QA (antibody, human IgG4 S228P, kappa)
heavy: EVQLVESGGGLVKPGGSLRLSCAASGFAFGDYYMNWVRQAPGKGLEWVALIRNKAAGYTIYYSAPVKGRFTISRDDSKSTLYLQMNSLKTEDTAVYYCVRDMTIYDGYYVDYALDYWGQGTLVTVSSASTKGPSVFPLAPCSRSTSESTAALGCLVKDYFPEPVTVSWNSGALTSGVHTFPAVLQSSGLYSLSSVVTVPSSSLGTKTYTCNVDHKPSNTKVDKRVESKYGPPCPPCPAPEFLGGPSVFLFPPKPKDTLMISRTPEVTCVVVDVSQEDPEVQFNWYVDGVEVHNAKTKPREEQFNSTYRVVSVLQVLHQDWLNGKEYKCKVSNKGLPSSIEKTISKAKGQPREPQVYTLPPSQEEMTKNQVSLTCLVKGFYPSDIAVEWESNGQPENNYKTTPPVLDSDGSFFLYSRLTVDKSRWQEGNVFSCSVMHEALHAHYTQKSLSLSLGK
light: DIVMTQSPSSVSASVGDRVTITCRASRNINIWLSWYQQKPGKAPKLFIYKASNLHTGVPSRFSGSGSGTDFTLTISSLQPEDFATYYCLQSQSYPLTFGQGTKLEIKRTVAAPSVFIFPPSDEQLKSGTASVVCLLNNFYPREAKVQWKVDNALQSGNSQESVTEQDSKDSTYSLSSTLTLSKADYEKHKVYACEVTHQGLSSPVTKSFNRGEC
notes: 5F7-2a8 with T307Q/N434A in the IgG4 (S228P) Fc; also called 5F7-QA

- Kd [1]: 15.4 nM
- koff [1]: 0.00277 s⁻¹
- kon [1]: 180000 M⁻¹ s⁻¹
- fold increase of binding affinity against 5F7-2a8-WT [2]: ~10 fold
B2: 5F7-2a8-YTE (antibody, human IgG4 S228P, kappa)
heavy: B1 heavy with M259Y, S261T, T263E, Q314T, A441N
light: B1 light
notes: 5F7-2a8 with M252Y/S254T/T256E in the IgG4 (S228P) Fc; also called 5F7-YTE

- koff [3]: 8.14e-07 s⁻¹
- Kd [4]: 0.0205 nM
- kon [5]: 39700 M⁻¹ s⁻¹
- IC50, IL-36α induced IL-36R signaling (IL36R reporter assay, luciferase) (membrane hIL-36R [6]): 0.312 nM
B3: 9A6 (antibody, V domains shown)
VH: QVQLQQSGPGLMAPSQSLSITCTVSGFSLTSYDVSWIRQSPGKGLEWLGVIWTGGGTDYNSAFMSRLSITKDNSKSQVFLKMSSLQTDDTAIYYCVRVYYDPYYAMDYWGQGTSVTVSS
VL: DIVLTQSPAIMSASPGEKVTMTCSASSSVSSRYLHWYQQKSGASPKLWIYGTSNLASGVPARFSGSGSGTSYSLTISSVEAEDAATYYCQQYHSDPLTFGAGTKLELK
notes: Mouse variable regions; also called chimeric antibody 9A6

- koff [3]: 0.000861 s⁻¹
- IC50, IL-36R reporter assay: inhibition of ligand induced luminescence in Jurkat-IL36R-IL1Racp-NFkB-luc cells (column printed '5F7-mus', taken as the '5F7 original molecular' of paragraph 330) (membrane hIL-36R [7]): 0.226 µg/mL
- Kd [4]: 14.6 nM
- kon [5]: 59100 M⁻¹ s⁻¹
- IC50, IL-36α induced IL-36R signaling (IL36R reporter assay, luciferase) (membrane hIL-36R [6]): 0.448 nM
B4: 5F7 (antibody, V domains shown)
VH: EVKLVESGGGLVQPGGSLSLSCAASGFAFTDYYMNWVRQPPGKALEWLALIRNKAAGYTIYYSASVKGRFTISRDNSQSILYLQMTALRPEDSATYYCVRDMTIYDGYYVDYALDYWGQGTSVTVSS
VL: DIQMNQSPSSLSASLGDTITITCRASQNINIWLSWYQQKPGNIPKLFIYKASNLHTGVPSRFSGSGSGTDFTLTISSLQPEDIATYYCQQSQSYPLTFGAGTKLELK
notes: Mouse variable regions; also called chimeric antibody 5F7; 5F7 original molecular
